This is an account of results in article PMC1964878.

Data set [1] deals with O=C(O)[C@H]1C[C@@H](O)CN1. Briefly: purified protein. The settings on record: Tris 20 mM/EDTA 1 mM, pH 8-9 (optimum buffer), 37 C, 10-160 mM substrate.
Data set [2] concerns O=C(O)[C@@H]1C[C@@H](O)CN1. Briefly: purified protein. The settings on record: Tris 20 mM/EDTA 1 mM, pH 8-9 (optimum buffer), 37 C, 10-160 mM substrate.

Turning to PaHyPRE (Pseudomonas aeruginosa PAO1), the Km in data set [1] amounted to 18.5 mM; in data set [2], 15.9 mM.
